Measurements: patent US20040265963A1 (UNIVERSITY OF FLORIDA RESEARCH FOUNDATION, published 2004)
Ends that are not written are not given here. * marks the point of attachment. Biotin = O=C1N[C@H]2[C@H](CS[C@H]2CCCCC(=O)*)N1

Tests used:
Assay in all cases: ELISA, biotinylated JAK2 WT on plate-coated control peptide (FIG. 1A)
MuIFN-γ(95-125) peptide = biological target: T1, MuIFN-γ(95-125) peptide (murine)
T1 construct: Control peptide; numbering is on the mature form of murine IFN-γ
T1 peptide: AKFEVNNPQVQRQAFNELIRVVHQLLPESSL

[1] = biological target: T2, CDK-2 cyclin box peptide (cyclin-dependent kinase, cyclin box peptide 41-61)
T2 construct: Control peptide; also called CDK 41-61
T2 peptide: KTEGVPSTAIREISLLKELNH

[2] = biological target: T3, VEGFR peptide (vascular endothelial growth factor receptor autophosphorylation peptide VEGFR 1208-1222)
T3 construct: Control peptide
T3 peptide: SSDVRYVNAFKFM

Measured: binding result

B1: biotinylated JAK2 WT peptide (JAK2 autophosphorylation peptide, residues 1001-1013, LPQDKEYYKVKEP) (peptide)
peptide: Biotin-LPQDKEYYKVKEP
notes: Synthetic peptide, biotin incorporated at the N-terminus during synthesis; not phosphorylated at Y1007; also called wild type JAK2 peptide; unphosphorylated JAK2 WT
no binding: MuIFN-γ(95-125) peptide | [1] | [2]
